The results in this text go back to patent US20250034594A1, “RNA-GUIDED GENOME RECOMBINEERING AT KILOBASE SCALE” (THE BOARD OF TRUSTEES OF THE LELAND STANFORD JUNIOR …, priority 2021, published 2025).

Common to all, as to format: cell-based
For assay [1], the system named is gene editing with Cas9. The experiment in a line: Screen of 322 new SSAP proteins, gene editing activity with Cas9 (Table 5). On the set-up: Cas9 with SSAP activity: scale not given here. Summed up:
(§1)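 Read-out is gene editing activity. Candidates come from sequence data mining, are made synthetically, and are tested alongside either nuclease-active Cas9 or catalytically dead dCas9.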

Assay [2] deals with gene editing with dCas9. The assay is described as follows: Screen of 322 new SSAP proteins, gene editing activity with dCas9 (Table 5). More on the design: dCas9 with SSAP activity: scale not given here. In a few lines:
as §1

The subject of assay [3] is gene editing with Cas9 and dCas9. The experiment in a line: Screen of 322 new SSAP proteins, activity across all experiments (Cas9 and dCas9, Table 5). On the set-up: scale not given here. In a few lines: as §1

B1: SSAP_31: SEQ ID NO: 200 (protein)
chain: TTVNQTELKNKLAEKAKTPAKTGNTVFDLIRKMEPEIKRALPKQISPERFARIAMTAVRNTPKLQACEPISFIAALMQSAQLGLEPNTPLGQAYLIPYGKEVQFQLGYQGMLTLAYRTGEYQSIYAMPVYANDEFEYEYGLNEKLVHKPAPDPEGEPIYYYAVYKLKNGGHGFVVMSRQQIERHRDKYSPSAKQGKFSPWNTDFDSMAKKTVLKQLLKYAPKSVEFATQIAQDETIKTEIAEDMTEVQGIEVEYEATDDQENQENQEQED
B1: in assay [1], the “Cas9 with SSAP activity” value is on record as −4.826 and the “Cas9 with SSAP activity (normalized)” value was −0.842. In addition, in assay [2], the “dCas9 with SSAP activity” value is reported as −4.110 and the “dCas9 with SSAP activity (normalized)” value was −0.643. Moreover, in assay [3], the “Activity across all experiments” value is reported as −4.468.

B2: SSAP_206: SEQ ID NO: 375; Actinopolyspora xinjiangensis (protein, listed as Actinopolyspora xinjiangensis)
chain: TGQTIGTAVAKKDDENPSAIIATNRADLARVMPSHVRTDSWVRIAQGIVRRDKNLAHAARQSPGTLMVALMEAARLGLEPGTEQYYLTPRKNKGKPEVLGIPGYQGLIELMYRSGAVSSVVVETVRENDTFQWAPGRMERPEHEADWFAINGERGQLRGVYAYAIMSNGATSKVVVLNRNDIARARDSAQGADSEHSPWKNHEEAMWLKTAARRLAKWVPTSTEDRRIVQGVAERSDQPTEAPLDLTDEPDTDQPIEGELVDEEATQ
As for B2, in assay [1], the “Cas9 with SSAP activity” value is reported as 2.444 and the “Cas9 with SSAP activity (normalized)” value stood at 1.806. Also, in assay [2], the “dCas9 with SSAP activity” value is −4.016 and the “dCas9 with SSAP activity (normalized)” value is listed as −0.671. Besides, in assay [3], the “Activity across all experiments” value is −0.786.

B3: SSAP_25: SEQ ID NO: 194 (protein)
chain: NNEVMEKSVEYEVNGNSVKLTPNMIKQFITKGNADVTDQEAIMFMKLAEQQQLNPFLNEVYLIKFKGKPAQNIVAKEAFMKRAEKHSEYDGLEAGIIVQRGEEIKELPGAVCLPTDNLLGGWARVYRKDRKNPFYVQLDFKEFSKGQATWNQMPKNMIRKTAIVNALREAFPEALGAMYTEDDARLEEVKTAEPIKEKAETTQILENKFKELSENGQTEVGDEQTNESTEPEPTAKQEQLL
In the case of B3, in assay [1], the “Cas9 with SSAP activity” value was 0.597 and the “Cas9 with SSAP activity (normalized)” value is listed as 0.880. In addition, in assay [2], the “dCas9 with SSAP activity” value is given as −4.113 and the “dCas9 with SSAP activity (normalized)” value is listed as −0.660. Further, the “Activity across all experiments” value in assay [3] is −1.758.

B4: SSAP_183: SEQ ID NO: 352; Clostridium sp. CAG: 277 (protein, listed as Clostridium sp.)
chain: DFKEELAAKAEVAATTKKSDGVKLTKNMSIVDMIKALEPEIKRALPSVLTPERFVRMALTAVNNTPALAQCTPMSFIAALMNAAQLGLEPNTPLGQAYLIPYKNKKKGVVECQFQIGYKGMIDLVYRNDNVQTIQAHIVRENDHFEYELGLESKLRHIPAMEGRGEMMYVYALFKLTNGGYGFEVLNKEAVIAHAERYSPSYDGFSPWKTDFESKGLELFLILDLSSKQSGK
As for B4, in assay [1], the “Cas9 with SSAP activity” value is −0.476 and the “Cas9 with SSAP activity (normalized)” value was −0.351. Besides, in assay [2], the “dCas9 with SSAP activity” value is −4.151 and the “dCas9 with SSAP activity (normalized)” value is −0.615. For the same molecule, the “Activity across all experiments” value in assay [3] was −2.313.

B5: SSAP_109: SEQ ID NO: 278; Bacillus (multispecies) (protein, listed as Bacillus sp.)
chain: TQAEKLKNDIAKQEQKNEVAQDDKPKTILDVMMQHKESFEMALPKHLDADRLIRLAVTEFRKNPMLKECTPESLLGAVMQAAQVGLEPDALGSAYLVPYYNKNKNVKEVQLQIGYKGLIELVRRSGQVTSIVANEVYENDEFDFEYGINEKLYHKPTMDADRGKLKCFYAYARFKDGGHAFTVMSVEQINQIRDKFSKSQKNGKHFGPWADHYESMAKKTVIKQLVKYMPISVEIQNQITRDETVHSSFKEEPKPIYAFEESPDIIDAPIEN
Regarding B5, in assay [1], the “Cas9 with SSAP activity” value was −1.697 and the “Cas9 with SSAP activity (normalized)” value is −0.475. Further, in assay [2], the “dCas9 with SSAP activity” value is −4.168 and the “dCas9 with SSAP activity (normalized)” value is −0.640. The “Activity across all experiments” value in assay [3] is listed as −2.932.

B6: SSAP_3: SEQ ID NO: 167; RecT Escherichia coli (protein)
chain: MTKQPPIAKADLQKTQGNRAPAAVKNSDVISFINQPSMKEQLAAALPRHMTAERMIRIATTEIRKVPALGNCDTMSFVSAIVQCSQLGLEPGSALGHAYLLPFGNKNEKSGKKNVQLIIGYRGMIDLARRSGQIASLSARVVREGDEFSFEFGLDEKLIHRPGENEDAPVTHVYAVARLKDGGTQFEVMTRKQIELVRSLSKAGNNGPWVTHWEEMAKKTAIRRLFKYLPVSIEIQRAVSMDEKEPLTIDPADSSVLTGEYSVIDNSEE
In the case of B6, in assay [1], the “Cas9 with SSAP activity” value is −0.942 and the “Cas9 with SSAP activity (normalized)” value is reported as −0.788. Also, in assay [2], the “dCas9 with SSAP activity” value was found to be 1.058 and the “dCas9 with SSAP activity (normalized)” value is recorded as 0.695. For the same molecule, the “Activity across all experiments” value in assay [3] is given as 0.058.

B7: SSAP_70: SEQ ID NO: 239 (protein)
chain: SNLKNQLANKAGGTATKKQPQTMQDWIKVMEPQIKKALPSVITAERFTRMALTAISTNPKLAECTPESFMGALMNAAQLGLEPNTPLGQAYLIPYGKSVQFQVGYKGLMELAQRSGQFKSIYAHTVYENDEFEVEYGLTQNIVHKPNFDDRGKPIGFYAVYKLTNGGENFVFMTQREVEEFGKAKSKTFNNGPWKTDFEAMAKKTVLKQLLKYAPIKVEFQREIAQDATIKTEIAEDMTEVPEEMVEAEYEVVEQNTMAEDADLKGTPFETK
In the case of B7, in assay [1], the “Cas9 with SSAP activity” value is −1.263 and the “Cas9 with SSAP activity (normalized)” value is listed as −0.349. Besides, in assay [2], the “dCas9 with SSAP activity” value is on record as −4.070 and the “dCas9 with SSAP activity (normalized)” value is −0.652. The “Activity across all experiments” value in assay [3] was −2.666.

B8: SSAP_107: SEQ ID NO: 276; Ammoniphilus oxalaticus (protein, listed as Ammoniphilus oxalaticus)
chain: STKATSNELKNQLANRQGNNAATNNNPANTIAAYLKRMAPEIEKALPAHMDADRLARIALTTIRTTPKLLECTIPSLMGAVMQSAQLGLEPGLIGHCYIIPYGKEATFIIGYKGMIDLARRSGNIESIYAHAVYKNDEFEYEYGLKPNLVHKPAMSDQGDFIGAYAVAHFKDGGYQFEFMPKEEIDKRRNRSAASKGGPWVTDYEEMAKKTVVRHMWKYLPISIEIQQAATQDEVVRKDITEDPMPVDVLDIPFEASDAEETSEEGEINFD
Take B8: in assay [1], the “Cas9 with SSAP activity” value is 0.596 and the “Cas9 with SSAP activity (normalized)” value came out at 1.792. In addition, in assay [2], the “dCas9 with SSAP activity” value is recorded as −4.159 and the “dCas9 with SSAP activity (normalized)” value was −0.615. In addition, the “Activity across all experiments” value in assay [3] is on record as −1.782.

B9: SSAP_147: SEQ ID NO: 316; Staphylococcus felis (protein, listed as Staphylococcus felis)
chain: ANANSFKEQVSNKNEVSENNNTPQQKTKGPRQQVSDLLERMAPEIQKALPSHMSAERMARIAMTAISSNTQLLECNPRSLIGALLQASQIGLEPNTALGQAYLIPYYNRNKGEFEAQLQLSYLGLIELATRTGQYKAIYAHEVYKEDEFYYEYGLHKNLVHKPVDDPKSEPIGYYAVYHLQNGGYDFSFWTRNKVELHSGQYSKAVQKGWNSPWKTDFNAMAKKTVLKDLLKYAPKSVEVSRAVGTDSKVSEISQNGEIIDVTDYSKEEE
B9: in assay [1], the “Cas9 with SSAP activity” value turned out to be 0.679 and the “Cas9 with SSAP activity (normalized)” value turned out to be 1.062. Besides, in assay [2], the “dCas9 with SSAP activity” value is given as −4.023 and the “dCas9 with SSAP activity (normalized)” value was −0.498. The “Activity across all experiments” value in assay [3] is −1.672.

B10: SSAP_219: SEQ ID NO: 388; Streptomyces uncialis (protein, listed as Streptomyces uncialis)
chain: SQISTAIATRDNGPAAVVEQYRESLALVMPSHLQQRVGAWIRNTQGLLRRDSKLMEAAQNDVGQFVAVLMDAARLGLEPGTEHYYLVPRWNNKKRATEVTGVRGYQGEIELMYRAGAVSSVIVEVVHTQDQFRFRPGRDARPVHDIDWDLEDRGSLRLVYAYAVMKDGATSKVVVLNRQHIAAARAKSDSAAKDWSPWNTDEEAMWLKTAAHRLTKWVPTSAEYLREQIRAQVAVESEQRPEPLPVAPPPAPGTVDADPDDEGPIDGELVD
With B10, in assay [1], the “Cas9 with SSAP activity” value was 0.580 and the “Cas9 with SSAP activity (normalized)” value worked out at 0.924. In assay [2], the “dCas9 with SSAP activity” value is on record as −4.163 and the “dCas9 with SSAP activity (normalized)” value was −0.726. Also, in assay [3], the “Activity across all experiments” value is −1.792.

B11: SSAP_254: SEQ ID NO: 423; Pediococcus pentosaceus (protein, listed as Pediococcus pentosaceus)
chain: MNDISKVPMKVLVQQDKVQRMLENTLKGKTRQFTTSLINVVNSNQSLADVDQMSVIKSAMVAASLDLPIDQNLGFMWLVPYKGMATPQIGYKGYIQLALRTGQYKKLNTIVVHEGEMKYWNPLTEDFEYDPKGKESDEVIGYLGYLRMINGFEKTVYWTKQNIEDHRMKFSKMSGKAKPSGVWASNYDAMALKTVMRNLLSKWGIMSIEMQQAVVQDEKAPETDVRDVTPTETNSIDSLLAPEPKGEPINDSNEATVPTNAE
For the molecule B11, in assay [1], the “Cas9 with SSAP activity” value is −1.160 and the “Cas9 with SSAP activity (normalized)” value is recorded as −0.694. Also, in assay [2], the “dCas9 with SSAP activity” value was −4.178 and the “dCas9 with SSAP activity (normalized)” value is −0.675. Further, the “Activity across all experiments” value in assay [3] was −2.669.

B12: SSAP_171: SEQ ID NO: 340; Streptomyces indicus (protein, listed as Streptomyces indicus)
chain: STDARNAVARRAETVGQVEQQAQQQPTLAQQIERMKPEMERALPKHMSADRMARIALTLIRKNPDLATCNTQSFLGALMTCSQLGFEPGSPTQEAYIIPRKGNAEFQLGYQGMVTLFYQHPMASSIKVETVRENDYFEHEEGLEERLVHRPCATGPRGRAIAYYSVARLINGGRTFKVMYPDEIEERRQKLPSKNSPAWRDNYDEMAKKTVLRNHFKALPKSAQLARALAHDGTVRTDATADVIDVAPEYPQRPELEAGPTA
As to B12, in assay [1], the “Cas9 with SSAP activity” value is given as −0.924 and the “Cas9 with SSAP activity (normalized)” value is recorded as −0.410. In assay [2], the “dCas9 with SSAP activity” value was −4.132 and the “dCas9 with SSAP activity (normalized)” value is −0.827. Besides, the “Activity across all experiments” value in assay [3] is −2.528.
